The text below walks through data of patent US20240336909A1 (HARPOON THERAPEUTICS, published 2024).

The target in assay [1] is T1, cynomolgus EpCAM protein (cynomolgus monkey).
T1 construct: biotinylated in the Octet assays; also called cy EpCAM; cynomolgus monkey EpCAM
Kind of assay: colorimetric ELISA. The source says: (§1) Llamas were immunized with purified EpCAM protein expressed in Expi293 cells. A phage display library for expression of heavy variable antibody domains was constructed from circulating B cells. See van der Linden, de Geus, Stok, Bos,van Wassenaar, Verrips, and Frenken. 2000. J Immunol Methods 240:185-195. Phage clones were screened for binding to EpCAM by expressing anti-EpCAM proteins in E coli, preparing periplasmic extracts, and proteins were screened for human and cynomolgus EpCAM binding activity using a colorimetric ELISA.
(In general: In an ELISA, binding on a coated surface is turned into a signal by an enzyme label.)

Assay [2] has as its target T2, human EpCAM protein (human, UniProt P16422 24-265).
T2 construct: biotinylated in the Octet assays; also called hu EpCAM; biotinylated human EpCAM protein
T2 sequence (looked up): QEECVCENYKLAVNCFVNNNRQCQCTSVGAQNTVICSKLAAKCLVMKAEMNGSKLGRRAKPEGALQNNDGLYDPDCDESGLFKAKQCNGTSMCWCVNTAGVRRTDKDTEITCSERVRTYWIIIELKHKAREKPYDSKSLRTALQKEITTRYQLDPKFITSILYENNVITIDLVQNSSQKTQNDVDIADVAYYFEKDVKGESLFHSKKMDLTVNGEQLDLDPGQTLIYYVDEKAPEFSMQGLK
As to the kind of experiment: colorimetric ELISA.
Excerpt: as §1

Substitutions are numbered along the chain they refer to.

T1 sequence (Q1WER1 24-265): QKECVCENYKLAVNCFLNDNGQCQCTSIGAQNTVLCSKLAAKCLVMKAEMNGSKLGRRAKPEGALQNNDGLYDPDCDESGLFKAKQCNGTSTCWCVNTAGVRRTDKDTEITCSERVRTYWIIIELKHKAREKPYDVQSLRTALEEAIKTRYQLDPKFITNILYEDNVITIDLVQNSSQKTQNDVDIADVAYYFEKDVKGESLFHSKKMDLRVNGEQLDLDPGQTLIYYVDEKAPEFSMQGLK

B1: Llama anti-EpCAM single domain antibody EPL117 (VHH)
VHH: QVQLQESGGGLVQAGGSLRLSCAASGNIVRMTNMAWYRQAPGKQREFVATISAGGSTTYVDSVKDRFTISRDNTKNTVYLQMNYLKPEDTAVYYCATGSILTNRGAIPGSWGHGTQVTVSS
notes: E. coli periplasmic extract
Take B1: in assay [1], the “Cynomolgus EpCAM/Control” value came to 3 ratio and the ELISA absorbance was determined as 0.6 absorbance. In assay [2], the ELISA absorbance stood at 0.9 absorbance and the “Human EpCAM/Control” value was 4 ratio.

B2: Llama anti-EpCAM single domain antibody EPL86 (VHH)
VHH: QVQLQESGGGLVQPGGSLRLSCAASGFTFSDWAMSWVRQAPGKGLEWVSGIHYGDHTTHYADFVKGRFTISRDDAKNTLYLQMNSLKPEDTAVYYCARGSTKGQGTQVTVSS
notes: E. coli periplasmic extract
As for B2, in assay [1], the “Cynomolgus EpCAM/Control” value worked out at 31 ratio and the ELISA absorbance is 3 absorbance. Besides, in assay [2], the ELISA absorbance came to 0.8 absorbance and the “Human EpCAM/Control” value was 8 ratio.

B3: Llama anti-EpCAM single domain antibody EPL153 (VHH)
VHH: B2 VHH with G50S, A97E, R98K, S100T, K102R
notes: E. coli periplasmic extract
As to B3, in assay [1], the “Cynomolgus EpCAM/Control” value worked out at 21 ratio and the ELISA absorbance is 2.2 absorbance. Moreover, in assay [2], the ELISA absorbance was 3.1 absorbance and the “Human EpCAM/Control” value came out at 31 ratio.

B4: Llama anti-EpCAM single domain antibody EPL127 (VHH)
VHH: QVQLQESGGGLVQAGGSLRLSCAAPGFAFNDHAILWFRQAPGKEREGVSEICRDGTTYYTDSVKGRFTISSDNAKNTVYLQMNSVKTDDTAVYYCAVDRRRYYCSGNRAFSSDYYYWGQGTQVTVSS
notes: E. coli periplasmic extract
As for B4, in assay [1], the “Cynomolgus EpCAM/Control” value stood at 11 ratio and the ELISA absorbance turned out to be 0.9 absorbance. Further, in assay [2], the ELISA absorbance amounted to 0.4 absorbance and the “Human EpCAM/Control” value turned out to be 5 ratio.

B5: Llama anti-EpCAM single domain antibody EPL15 (VHH)
VHH: QVQLQESGGGSVLAGGSLRLSCAASGFTFSSYYMSWVRQAPGKGLEWVSGIHYTGDWTNYADSVKGRFTISRDNAKNELYLEMNNLKPEDTAVYYCARGSDKGQGTQVTVSS
notes: E. coli periplasmic extract
Regarding B5, in assay [1], the “Cynomolgus EpCAM/Control” value came out at 35 ratio and the ELISA absorbance stood at 3.2 absorbance. In assay [2], the ELISA absorbance was determined as 0.7 absorbance and the “Human EpCAM/Control” value was 8 ratio.

B6: Llama anti-EpCAM single domain antibody EPL34 (VHH)
VHH: B5 VHH with L13Q
notes: E. coli periplasmic extract
For the molecule B6, in assay [1], the “Cynomolgus EpCAM/Control” value turned out to be 36 ratio and the ELISA absorbance is 3.1 absorbance. In addition, in assay [2], the ELISA absorbance stood at 0.9 absorbance and the “Human EpCAM/Control” value was 10 ratio.

B7: Llama anti-EpCAM single domain antibody EPL20 (VHH)
VHH: QVQLQESGGGLVQAGGSLKLSCAASGNVFRAATMAWYRQAPEKQREMVATIASGGTTNYADFVKGRFTISRDNAKNTVYLQMNTLKPEDTAVYYCNAGYLTSLGPKNYWGQGTQVTVSS
notes: E. coli periplasmic extract
With B7, in assay [1], the “Cynomolgus EpCAM/Control” value was determined as 4 ratio and the ELISA absorbance came to 2.2 absorbance. Further, in assay [2], the ELISA absorbance worked out at 2.9 absorbance and the “Human EpCAM/Control” value was determined as 6 ratio.

B8: Llama anti-EpCAM single domain antibody EPL125 (VHH)
VHH: B7 VHH with K19R, A40V, G98L, N107S
notes: E. coli periplasmic extract
B8: in assay [1], the “Cynomolgus EpCAM/Control” value turned out to be 8 ratio and the ELISA absorbance is 3.5 absorbance. For the same molecule, in assay [2], the ELISA absorbance was found to be 3.5 absorbance and the “Human EpCAM/Control” value stood at 8 ratio.

B9: Llama anti-EpCAM single domain antibody EPL120 (VHH)
VHH: QVQLQESGGGLVQAGGSLRLSCAASGFIFRAASISWYRQSPGNERELVATINSGGFTNYADSVLGRFTISRDNAKNTGYLQMNSLKPEDTAVYFCAATFLRSDGQPPIWGQGTQVTVSS
notes: E. coli periplasmic extract
As for B9, in assay [1], the “Cynomolgus EpCAM/Control” value turned out to be 4 ratio and the ELISA absorbance was 2.3 absorbance. In addition, in assay [2], the ELISA absorbance came out at 3.2 absorbance and the “Human EpCAM/Control” value was 5 ratio.

B10: Llama anti-EpCAM single domain antibody EPL109 (VHH)
VHH: QVQLQESGGGLVQPGGSLRLSCASSGFTLDDYTIGWFRQAPGKEREGVSCISRRDDSTYYADSVKGRFTISRDNAKNTVDLQMISLRPEDTAVYYCAATPRSYTLRCLGKFDFQGQGTQVTVSS
notes: E. coli periplasmic extract
As for B10, in assay [1], the “Cynomolgus EpCAM/Control” value was 2 ratio and the ELISA absorbance amounted to 0.1 absorbance. Besides, in assay [2], the ELISA absorbance was determined as 0.4 absorbance and the “Human EpCAM/Control” value was found to be 5 ratio.

B11: Llama anti-EpCAM single domain antibody EPL189 (VHH)
VHH: QVQLQESGGGLVQPGGSLRLSCAASGRINSINTMGWYRQAPGNQRELVAEITRGGTTNYADSVQGRYAISRDNAKNLVYLQMNSLKPEDTDVYYCNAQTFPTFSRPTGLDYWGQGTQVTVSS
notes: E. coli periplasmic extract
For the molecule B11, in assay [1], the “Cynomolgus EpCAM/Control” value worked out at 8 ratio and the ELISA absorbance turned out to be 0.9 absorbance. For the same molecule, in assay [2], the ELISA absorbance came to 1.3 absorbance and the “Human EpCAM/Control” value is 12 ratio.

B12: Llama anti-EpCAM single domain antibody EPL31 (VHH)
VHH: QVQLQESGGGLVHTGGSLRLSCAASGDTFLRYAMGWFRQAPGKEREFVAAITWNGGNTDYAGSLKGRFTISRDNTKNTVYLQMNSLKPEDTAVYYCAADLTFGLASSHYQYDYWGQGTQVTVSS
notes: E. coli periplasmic extract
For the molecule B12, in assay [1], the “Cynomolgus EpCAM/Control” value worked out at 6 ratio and the ELISA absorbance was 0.5 absorbance. For the same molecule, in assay [2], the ELISA absorbance was determined as 0.6 absorbance and the “Human EpCAM/Control” value was found to be 7 ratio.

B13: Llama anti-EpCAM single domain antibody EPL136 (VHH)
VHH: B12 VHH with H13Q, T14P
notes: E. coli periplasmic extract
Regarding B13, in assay [1], the “Cynomolgus EpCAM/Control” value stood at 13 ratio and the ELISA absorbance turned out to be 1.3 absorbance. Moreover, in assay [2], the ELISA absorbance came to 0.9 absorbance and the “Human EpCAM/Control” value stood at 9 ratio.

B14: Llama anti-EpCAM single domain antibody EPL57 (VHH)
VHH: B12 VHH with A24F, G62D, K87R
notes: E. coli periplasmic extract
Turning to B14, in assay [1], the “Cynomolgus EpCAM/Control” value is 27 ratio and the ELISA absorbance came out at 3.4 absorbance. For the same molecule, in assay [2], the ELISA absorbance came to 1.7 absorbance and the “Human EpCAM/Control” value was determined as 14 ratio.

B15: Llama anti-EpCAM single domain antibody EPL55 (VHH)
VHH: B12 VHH with H13Q, T14A
notes: E. coli periplasmic extract
Turning to B15, in assay [1], the “Cynomolgus EpCAM/Control” value was found to be 7 ratio and the ELISA absorbance stood at 0.6 absorbance. Further, in assay [2], the ELISA absorbance is 0.4 absorbance and the “Human EpCAM/Control” value was 5 ratio.

B16: Llama anti-EpCAM single domain antibody EPL13 (VHH)
VHH: QVQLQESGGGLVQPGGSLRLSCAASGFAFGNHWMYWYRQAPGRGRELVASISSGGSTNYVDSVKGRFTISRDNARNTVYLQMYSLKPEDTAVYYCGTSDNWGQGTQVTVSS
notes: E. coli periplasmic extract
B16: in assay [1], the “Cynomolgus EpCAM/Control” value stood at 23 ratio and the ELISA absorbance worked out at 4 absorbance. In assay [2], the ELISA absorbance was 2.9 absorbance and the “Human EpCAM/Control” value amounted to 17 ratio.

B17: Llama anti-EpCAM single domain antibody EPL129 (VHH)
VHH: B16 VHH with P14A, K86R
notes: E. coli periplasmic extract
Take B17: in assay [1], the “Cynomolgus EpCAM/Control” value came to 29 ratio and the ELISA absorbance was 3.1 absorbance. Moreover, in assay [2], the ELISA absorbance is 2 absorbance and the “Human EpCAM/Control” value amounted to 20 ratio.

B18: Llama anti-EpCAM single domain antibody EPL152 (VHH)
VHH: QVQLQESGGGLVQAGGSLRLSCVHSGSIFRASTMAWYRQAPGKQRELVAQIMSGGGTNYAGSVKGRFTISRDNANNTVYLQMNSLKPEDTAVYYCNAAQITSWGPKVYWGQGTQVTVSS
notes: E. coli periplasmic extract
With B18, in assay [1], the “Cynomolgus EpCAM/Control” value came to 4 ratio and the ELISA absorbance turned out to be 2.8 absorbance. In addition, in assay [2], the ELISA absorbance amounted to 3.4 absorbance and the “Human EpCAM/Control” value came to 4 ratio.

B19: Llama anti-EpCAM single domain antibody EPL97 (VHH)
VHH: QVQLQESGGGLVQAGGSLRLSCAASGIIFRGTTMGWFRQAPGKQRESVASISPLGTTSYSGSVEGRFTVSRDNAKNTLFLQMNSLKSEDTAVYYCNAIQVTNVGPRVYWGQGTQVTVSS
notes: E. coli periplasmic extract
B19: in assay [1], the “Cynomolgus EpCAM/Control” value came to 5 ratio and the ELISA absorbance was determined as 1.7 absorbance. Also, in assay [2], the ELISA absorbance was found to be 2.5 absorbance and the “Human EpCAM/Control” value was determined as 8 ratio.
